Data reported in patent publication US20110166075A1.

Target: Mac-1 (CD11b/CD18) integrin receptor on primary mouse microglia (mouse) (UniProt P05555)
Experiment: cell-based or functional assay

Chain of Mac-1 (CD11b/CD18) integrin receptor on primary mouse microglia (mouse) (P05555 17-1153, chain 1 of 2): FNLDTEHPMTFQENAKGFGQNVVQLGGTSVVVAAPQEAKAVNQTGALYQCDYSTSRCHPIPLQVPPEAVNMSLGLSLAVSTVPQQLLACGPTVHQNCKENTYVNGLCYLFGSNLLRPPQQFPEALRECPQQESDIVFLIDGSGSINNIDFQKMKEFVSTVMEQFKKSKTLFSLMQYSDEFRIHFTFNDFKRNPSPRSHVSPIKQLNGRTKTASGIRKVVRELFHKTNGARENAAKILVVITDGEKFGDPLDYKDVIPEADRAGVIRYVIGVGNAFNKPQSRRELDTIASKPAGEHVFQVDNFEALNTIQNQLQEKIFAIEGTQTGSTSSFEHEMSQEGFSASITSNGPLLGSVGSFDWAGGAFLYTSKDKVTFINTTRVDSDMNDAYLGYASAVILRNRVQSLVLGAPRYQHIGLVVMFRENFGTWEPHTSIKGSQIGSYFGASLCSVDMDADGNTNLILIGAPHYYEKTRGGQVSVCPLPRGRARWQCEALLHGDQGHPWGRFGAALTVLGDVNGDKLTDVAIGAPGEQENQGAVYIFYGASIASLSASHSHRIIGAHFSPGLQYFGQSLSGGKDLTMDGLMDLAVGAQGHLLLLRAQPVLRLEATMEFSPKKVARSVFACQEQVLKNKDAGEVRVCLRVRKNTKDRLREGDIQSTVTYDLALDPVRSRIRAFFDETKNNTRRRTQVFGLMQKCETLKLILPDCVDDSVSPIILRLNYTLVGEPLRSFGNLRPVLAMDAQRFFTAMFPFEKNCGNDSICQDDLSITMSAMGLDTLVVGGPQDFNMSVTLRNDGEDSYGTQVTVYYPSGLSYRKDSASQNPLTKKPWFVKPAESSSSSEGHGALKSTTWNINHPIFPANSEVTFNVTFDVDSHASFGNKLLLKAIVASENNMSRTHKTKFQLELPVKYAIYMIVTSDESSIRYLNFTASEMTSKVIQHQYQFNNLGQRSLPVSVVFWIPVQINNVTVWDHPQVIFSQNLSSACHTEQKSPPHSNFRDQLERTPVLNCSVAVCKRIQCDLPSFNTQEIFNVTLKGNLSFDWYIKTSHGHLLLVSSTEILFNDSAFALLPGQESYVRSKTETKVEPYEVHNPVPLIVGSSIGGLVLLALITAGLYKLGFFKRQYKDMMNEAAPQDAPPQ
Chain of Mac-1 (CD11b/CD18) integrin receptor on primary mouse microglia (mouse) (P11835 24-771, chain 2 of 2, further chain): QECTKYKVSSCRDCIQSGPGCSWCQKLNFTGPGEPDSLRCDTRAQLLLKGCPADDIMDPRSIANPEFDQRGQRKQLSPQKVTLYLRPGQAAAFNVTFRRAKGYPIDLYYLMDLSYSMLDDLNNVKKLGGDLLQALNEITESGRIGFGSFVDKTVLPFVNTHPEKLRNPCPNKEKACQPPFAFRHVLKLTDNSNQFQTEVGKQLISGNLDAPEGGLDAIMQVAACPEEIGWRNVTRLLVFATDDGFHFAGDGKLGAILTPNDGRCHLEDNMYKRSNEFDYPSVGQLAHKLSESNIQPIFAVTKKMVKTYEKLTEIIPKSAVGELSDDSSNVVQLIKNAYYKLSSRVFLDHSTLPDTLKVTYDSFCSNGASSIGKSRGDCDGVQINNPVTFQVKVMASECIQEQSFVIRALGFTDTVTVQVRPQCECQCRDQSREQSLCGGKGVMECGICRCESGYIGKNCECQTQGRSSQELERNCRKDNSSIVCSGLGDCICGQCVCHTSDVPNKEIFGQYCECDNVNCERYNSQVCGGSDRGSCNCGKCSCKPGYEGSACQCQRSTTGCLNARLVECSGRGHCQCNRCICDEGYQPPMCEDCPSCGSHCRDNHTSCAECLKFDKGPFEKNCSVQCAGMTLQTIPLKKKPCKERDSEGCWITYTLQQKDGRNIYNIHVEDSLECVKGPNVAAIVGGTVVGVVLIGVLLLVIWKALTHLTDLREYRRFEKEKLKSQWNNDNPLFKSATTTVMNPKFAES

| activated microglia (cells larger than 2,000 um^2), fibrinogen in the presence of M1/70 (% of activated microglia) | phagocytosis of fibrinogen-treated microglia [% reduction] | Akt phosphorylation in microglia (Western blot) [fold] | activated microglia (cells larger than 2,000 um^2), fibrinogen treated cells (% of activated microglia) | activated microglia, fibrinogen treatment (% of activated microglia) | active RhoA in microglia (GST-Rhotekin pull-down, Western blot) [fold] | Substance |
| --- | --- | --- | --- | --- | --- | --- |
| 18 | 40 | – | – | – | – | M1/70, rat anti-CD11b neutralizing antibody |
| – | – | 24 | 71 | 71 | 1.9 | fibrinogen (Calbiochem), immobilized on tissue culture dishes (ligand) |
